The values that follow come from patent US9618524B2, “Method, composition, isolation and identification of a plaque particle and related biomarker” (Plaxgen Inc., priority 2012, dated 2017).

Holding throughout (assay): Mass spectroscopy proteomics, semi-quantitative binding affinity of serum proteins (plaqueproteome, Table 2)
Holding throughout (settings): higher number = stronger affinity

One test has as its system Tau plaque particles. More on the design: species or system human. The essentials:
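Synthetic Tau-74 and Tau-275 peptides (1 mg/mL PBS, 37° C, 2 h) aggregated; 30 μg aggregates incubated with 50% serum/plasma 1 h at 37° C, stained with Thioflavin S, and plaque particles sorted by flow cytometry. Bound proteins trypsin-digested and identified by MS/MS against human UniProt.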

For test [1], the target named is T1, Abeta-42 plaque particles (Homo sapiens, UniProt P05067).
T1 construct: Abeta 1-42
The method in brief: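 AD patient serum or plasma (50% in PBS) was incubated with Abeta-42 aggregates (30 μg) for 1 h at 37 °C, then stained with Thioflavin S for 30 min. Labeled particles were FACS-sorted, trypsin/Lys-C digested overnight and analyzed by MS/MS. Sequest searched human UniProt; Scaffold/Protein Prophet validated the identifications.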

The test system of test [2] is Low density cholesterol (Chl small) plaque particles. More on the design: species or system human. The essentials: (§1)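 Proteins bound to flow-sorted cholesterol plaque particles (large/high-density or small/low-density gates) were identified by LC-MS/MS after trypsin digestion. Particles were formed from 50% atherosclerotic serum or plasma with 30 μg cholesterol aggregates, 1 h, 37 °C. Sequest human database search; Scaffold validation.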

For test [3], the system named is High Density cholesterol (Chl Large) plaque particles. Also noted: species or system human. The method in brief:
as §1

Test [4] concerns the target T2, alpha-synuclein plaque particles (Homo sapiens, UniProt P37840).
T2 construct: 140 amino acids polypeptide
The essentials:
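AD-subject plasma or serum (800 μL of 50%) mixed with 30 μg preformed alpha-synuclein aggregates for 1 h at 37 °C; Thioflavin S-positive particles isolated by flow sorting. After reduction, acrylamide alkylation and overnight tryptic digestion, serum proteins identified by MS/MS with Sequest and Scaffold.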

B1: Pregnancy zone protein (protein)
chain: TEPQYMVLVPSLLHTEAPKKGCVLLSHLNETVTVSASLESGRENRSLFTDLVAEKDLFHCVSFTLPRISASSEVAFLSIQIKGPTQDFRKRNTVLVLNTQSLVFVQTDKPMYKPGQTVRFRVVSVDENFRPRNELIPLIYLENPRRNRIAQWQSLKLEAGINQLSFPLSSEPIQGSYRVVVQTESGGRIQHPFTVEEFVLPKFEVKVQVPKIISIMDEKVNITVCGEYTYGKPVPGLATVSLCRKLSRVLNCDKQEVCEEFSQQLNSNGCITQQVHTKMLQITNTGFEMKLRVEARIREEGTDLEVTANRISEITNIVSKLKFVKVDSHFRQGIPFFAQVLLVDGKGVPIPNKLFFISVNDANYYSNATTNEQGLAQFSINTTSISVNKLFVRVFTVHPNLCFHYSWVAEDHQGAQHTANRVFSLSGSYIHLEPVAGTLPCGHTETITAHYTLNRQAMGELSELSFHYLIMAKGVIVRSGTHTLPVESGDMKGSFALSFPVESDVAPIARMFIFAILPDGEVVGDSEKFEIENCLANKVDLSFSPAQSPPASHAHLQVAAAPQSLCALRAVDQSVLLMKPEAELSVSSVYNLLTVKDLTNFPDNVDQQEEEQGHCPRPFFIHNGAIYVPLSSNEADIYSFLKGMGLKVFTNSKIRKPKSCSVIPSVSAGAVGQGYYGAGLGVVERPYVPQLGTYNVIPLNNEQSSGPVPETVRSYFPETWIWELVAVNSSGVAEVGVTVPDTITEWKAGAFCLSEDAGLGISSTASLRAFQPFFVELTMPYSVIRGEVFTLKATVLNYLPKCIRVSVQLKASPAFLASQNTKGEESYCICGNERQTLSWTVTPKTLGNVNFSVSAEAMQSLELCGNEVVEVPEIKRKDTVIKTLLVEAEGIEQEKTFSSMTCASGANVSEQLSLKLPSNVVKESARASFSVLGDILGSAMQNIQNLLQMPYGCGEQNMVLFAPNIYVLNYLNETQQLTQEIKAKAVGYLITGYQRQLNYKHQDGSYSTFGERYGRNQGNTWLTAFVLKTFAQARSYIFIDEAHITQSLTWLSQMQKDNGCFRSSGSLLNNAIKGGVEDEATLSAYVTIALLEIPLPVTNPIVRNALFCLESAWNVAKEGTHGSHVYTKALLAYAFSLLGKQNQNREILNSLDKEAVKEDNLVHWERPQRPKAPVGHLYQTQAPSAEVEMTSYVLLAYLTAQPAPTSGDLTSATNIVKWIMKQQNAQGGFSSTQDTVVALHALSRYGAATFTRTEKTAQVTVQDSQTFSTNFQVDNNNLLLLQQISLPELPGEYVITVTGERCVYLQTSMKYNILPEKEDSPFALKVQTVPQTCDGHKAHTSFQISLTISYTGNRPASNMVIVDVKMVSGFIPLKPTVKMLERSSSVSRTEVSNNHVLIYVEQVTNQTLSFSFMVLQDIPVGDLKPAIVKVYDYYETDESVVAEYIAPCSTDTEHGNV
B1: in the test with Tau plaque particles, the “Semi-quantitative analysis of proteins binding to different plaque particles: Tau” value is 0. In addition, the “Semi-quantitative analysis of proteins binding to different plaque particles: Abeta-42” value in test [1] worked out at 4. Further, the “Semi-quantitative analysis of proteins binding to different plaque particles: Chl small” value in test [2] was found to be 2. The “Semi-quantitative analysis of proteins binding to different plaque particles: Chl Large” value in test [3] came to 0. Besides, in test [4], the “Semi-quantitative analysis of proteins binding to different plaque particles: Synuclein” value amounted to 0.

B2: Isoform 2 of Spermatid perinuclear RNA-binding protein (protein)
chain: MVKHSTIYPSPEELEAVQNMVSTVECALKHVSDWLDETNKGTKTEGETEVKKDEAGENYSKDQGGRTLCGVMRIGLVAKGLLIKDDMDLELVLMCKDKPTETLLNTVKDNLPIQIQKLTEEKYQVEQCVNEASIIIRNTKEPTLTLKVILTSPLIRDELEKKDGENVSMKDPPDLLDRQKCLNALASLRHAKWFQARANGLKSCVIVLRILRDLCNRVPTWAPLKGWPLELICEKSIGTCNRPLGAGEALRRVMECLASGILLPGGPGLHDPCERDPTDALSYMTIQQKEDITHSAQHALRLSAFGQIYKVLEMDPLPSSKPFQKYSWSVTDKEGAGSSALKRPFEDGLGDDKDPNKKMKRNLRKILDSKAIDLMNALMRLNQIRPGLQYKLLSQSGPVHAPVFTMSVDVDGTTYEASGPSKKTAKLHVAVKVLQAMGYPTGFDADIECMSSDEKSDNESKNETVSSNSSNNTGNSTTETSSTLEVRTQGPILTASGKNPVMELNEKRRGLKYELISETGGSHDKRFVMEVEVDGQKFRGAGPNKKVAKASAALAALEKLFSGPNAANNKKKKIIPQAKGVVNTAVSAAVQAVRGRGRGTLTRGAFVGATAAPGYIAPGYGTPYGYSTAAPAYGLPKRMVLLPVMKFPTYPVPHYSFF
Regarding B2, the “Semi-quantitative analysis of proteins binding to different plaque particles: Tau” value in the test with Tau plaque particles is 0. For the same molecule, the “Semi-quantitative analysis of proteins binding to different plaque particles: Abeta-42” value in test [1] worked out at 2. The “Semi-quantitative analysis of proteins binding to different plaque particles: Chl small” value in test [2] is 0. For the same molecule, the “Semi-quantitative analysis of proteins binding to different plaque particles: Chl Large” value in test [3] is listed as 0. Besides, the “Semi-quantitative analysis of proteins binding to different plaque particles: Synuclein” value in test [4] is listed as 0.

B3: Cluster of Interleukin enhancer-binding factor 3 (protein, UniProt Q12906 1-894, looked up)
Interleukin enhancer-binding …: MRPMRIFVNDDRHVMAKHSSVYPTQEELEAVQNMVSHTERALKAVSDWIDEQEKGSSEQAESDNMDVPPEDDSKEGAGEQKTEHMTRTLRGVMRVGLVAKGLLLKGDLDLELVLLCKEKPTTALLDKVADNLAIQLAAVTEDKYEILQSVDDAAIVIKNTKEPPLSLTIHLTSPVVREEMEKVLAGETLSVNDPPDVLDRQKCLAALASLRHAKWFQARANGLKSCVIVIRVLRDLCTRVPTWGPLRGWPLELLCEKSIGTANRPMGAGEALRRVLECLASGIVMPDGSGIYDPCEKEATDAIGHLDRQQREDITQSAQHALRLAAFGQLHKVLGMDPLPSKMPKKPKNENPVDYTVQIPPSTTYAITPMKRPMEEDGEEKSPSKKKKKIQKKEEKAEPPQAMNALMRLNQLKPGLQYKLVSQTGPVHAPIFTMSVEVDGNSFEASGPSKKTAKLHVAVKVLQDMGLPTGAEGRDSSKGEDSAEETEAKPAVVAPAPVVEAVSTPSAAFPSDATAEQGPILTKHGKNPVMELNEKRRGLKYELISETGGSHDKRFVMEVEVDGQKFQGAGSNKKVAKAYAALAALEKLFPDTPLALDANKKKRAPVPVRGGPKFAAKPHNPGFGMGGPMHNEVPPPPNLRGRGRGGSIRGRGRGRGFGGANHGGYMNAGAGYGSYGYGGNSATAGYSQFYSNGGHSGNASGGGGGGGGGSSGYGSYYQGDNYNSPVPPKHAGKKQPHGGQQKPSYGSGYQSHQGQQQSYNQSPYSNYGPPQGKQKGYNHGQGSYSYSNSYNSPGGGGGSDYNYESKFNYSGSGGRSGGNSYGSGGASYNPGSHGGYGGGSGGGSSYQGKQGGYSQSNYNSPGSGQNYSGPPSSYQSSQGGYGRNADHSMNYQYR
For B3, the “Semi-quantitative analysis of proteins binding to different plaque particles: Tau” value with Tau plaque particles is recorded as 0. In addition, the “Semi-quantitative analysis of proteins binding to different plaque particles: Abeta-42” value in test [1] is 4. Moreover, the “Semi-quantitative analysis of proteins binding to different plaque particles: Chl small” value in test [2] is 0. In test [3], the “Semi-quantitative analysis of proteins binding to different plaque particles: Chl Large” value was found to be 0. For the same molecule, the “Semi-quantitative analysis of proteins binding to different plaque particles: Synuclein” value in test [4] was found to be 0.

B4: Interleukin enhancer-binding factor 3 (protein)
chain: MRPMRIFVNDDRHVMAKHSSVYPTQEELEAVQNMVSHTERALKAVSDWIDEQEKGSSEQAESDNMDVPPEDDSKEGAGEQKTEHMTRTLRGVMRVGLVAKGLLLKGDLDLELVLLCKEKPTTALLDKVADNLAIQLAAVTEDKYEILQSVDDAAIVIKNTKEPPLSLTIHLTSPVVREEMEKVLAGETLSVNDPPDVLDRQKCLAALASLRHAKWFQARANGLKSCVIVIRVLRDLCTRVPTWGPLRGWPLELLCEKSIGTANRPMGAGEALRRVLECLASGIVMPDGSGIYDPCEKEATDAIGHLDRQQREDITQSAQHALRLAAFGQLHKVLGMDPLPSKMPKKPKNENPVDYTVQIPPSTTYAITPMKRPMEEDGEEKSPSKKKKKIQKKEEKAEPPQAMNALMRLNQLKPGLQYKLVSQTGPVHAPIFTMSVEVDGNSFEASGPSKKTAKLHVAVKVLQDMGLPTGAEGRDSSKGEDSAEETEAKPAVVAPAPVVEAVSTPSAAFPSDATAEQGPILTKHGKNPVMELNEKRRGLKYELISETGGSHDKRFVMEVEVDGQKFQGAGSNKKVAKAYAALAALEKLFPDTPLALDANKKKRAPVPVRGGPKFAAKPHNPGFGMGGPMHNEVPPPPNLRGRGRGGSIRGRGRGRGFGGANHGGYMNAGAGYGSYGYGGNSATAGYSQFYSNGGHSGNASGGGGGGGGGSSGYGSYYQGDNYNSPVPPKHAGKKQPHGGQQKPSYGSGYQSHQGQQQSYNQSPYSNYGPPQGKQKGYNHGQGSYSYSNSYNSPGGGGGSDYNYESKFNYSGSGGRSGGNSYGSGGASYNPGSHGGYGGGSGGGSSYQGKQGGYSQSNYNSPGSGQNYSGPPSSYQSSQGGYGRNADHSMNYQYR
Turning to B4, the “Semi-quantitative analysis of proteins binding to different plaque particles: Tau” value in the test on Tau plaque particles came out at 0. For the same molecule, the “Semi-quantitative analysis of proteins binding to different plaque particles: Abeta-42” value in test [1] came to 4. Further, the “Semi-quantitative analysis of proteins binding to different plaque particles: Chl small” value in test [2] was 0. Further, the “Semi-quantitative analysis of proteins binding to different plaque particles: Chl Large” value in test [3] is 0. Also, the “Semi-quantitative analysis of proteins binding to different plaque particles: Synuclein” value in test [4] is 0.
